# Patent US20220177587A1, “METHODS AND USES OF VARIANT CD80 FUSION PROTEINS AND RELATED CONSTRUCTS” (Alpine Immune Sciences, Inc., priority 2018, published 2022)
# Where “and” joins values, the source holds several entries; their conditions need not be identical. Equal values may be shown once.
# Legend:
# allogeneic CD4+ T cells = experiment: Mixed Lymphocyte Reaction (MLR), IFN-gamma; type: cell-based, human; details: culture supernatant
# Description: Soluble rCD80.Fc bioactivity was tested in a human Mixed Lymphocyte Reaction (MLR). Human primary dendritic cells (DC) were generated by culturing monocytes isolated from PBMC (BenTech Bio, USA) in vitro for 7 days with 500U/ml rIL-4 (R&D Systems, USA) and 250 U/ml rGM-CSF (R&D Systems, USA) in Ex-Vivo 15 media (Lonza, Switzerland). 10,000 matured DC and 100,000 purified allogeneic CD4+ T cells (BenTech Bio, USA) were co-cultured with variant CD80 Fc fusion proteins and controls in 96 well round bottom plates in 200 μl final volume of Ex-Vivo 15 media. On day 5, IFN-gamma secretion in culture supernatants was analyzed using the Human IFN-gamma Duoset ELISA kit (R&D Systems, USA). Optical density was measured by VMax ELISA Microplate Reader (Molecular Devices, USA) and quantitated against titrated rIFN-gamma standard included in the IFN-gamma Duo-set kit (R&D Systems, USA).
# human pan T cells = experiment: Anti-CD3 coimmobilization assay, IFN-gamma; type: cell-based; details: culture supernatant; for Coimmobilization with anti-CD3 IFN-gamma: Table E33, 3 days; for Coimmobilization with anti CD3 IFN-gamma: Table E32, variant ECD-Fc coimmobilized with anti-CD3
# In short: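 Plates coated overnight with 1 nM or 4 nM OKT3 anti-CD3 plus 1–80 nM rCD80.Fc variants, then washed. Purified human pan T cells or BC3 T cell clone (100,000/well) cultured 3 days in Ex-Vivo 15; supernatant IFN-gamma measured by ELISA.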
# CD28 = CD28 (Homo sapiens, UniProt P10747); experiment: Jurkat/IL2 + K562/OKT3/PD-L1 reporter assay; type: cell-based; design: host or cells: Jurkat cells expressing an IL-2-luciferase reporter; details: Table E7; K562/OKT3/PD-L1 aAPC; 50 nM
# [1] = Table E32, variant ECD-Fc in MLR assay
Molecule,MLR IFN-gamma levels (allogeneic CD4+ T cells; Table E33),Coimmobilization with anti-CD3 IFN-gamma (human pan T cells),other results
R29V/M43Q/E81R/L85I/K89R/D90L/A91E/F92N/K93Q/R94G (protein) VIHVTKEVKEVATLSCGHNVSVEELAQTVIYWQKEKKMVLTMQSGDMNIWPEYKNRTIFDITNNLSIVILALRPSDEGTYRCVVIKYERLENQGEHLAEVTLSVKADFPTPSISDFEIPTSNIRRIICSTSGGFPEPHLSWLENGEELNAINTTVSQDPETELYAVSSKLDFNMTTNHSFMCLIKYGHLRVNQTFNWNTTKQEHFPDN,11695 pg/mL,342 pg/mL,
E88D/K89R/D90K/A91G/F92Y/K93R/N122S/N177S (protein) VIHVTKEVKEVATLSCGHNVSVEELAQTRIYWQKEKKMVLTMMSGDMNIWPEYKNRTIFDITNNLSIVILALRPSDEGTYECVVLKYDRKGYRREHLAEVTLSVKADFPTPSISDFEIPTSSIRRIICSTSGGFPEPHLSWLENGEELNAINTTVSQDPETELYAVSSKLDFNMTTSHSFMCLIKYGHLRVNQTFNWNTTKQEHFPDN,6345 pg/mL,773 pg/mL,
K36G/K37Q/M38I/L40M/F59L/E81V/L85R/K89N/A91T/F92P/K93V/R94L/E99G/T130A/N149S (protein) VIHVTKEVKEVATLSCGHNVSVEELAQTRIYWQKEGQIVMTMMSGDMNIWPEYKNRTILDITNNLSIVILALRPSDEGTYVCVVRKYENDTPVLEHLAGVTLSVKADFPTPSISDFEIPTSNIRRIICSASGGFPEPHLSWLENGEELSAINTTVSQDPETELYAVSSKLDFNMTTNHSFMCLIKYGHLRVNQTFNWNTTKQEHFPDN,3095 pg/mL,507 pg/mL,
"E24G/L25P/L70Q/A91G/I118V/T120S/N152T (protein, CD80 v149 ECD) VIHVTKEVKEVATLSCGHNVSVEGPAQTRIYWQKEKKMVLTMMSGDMNIWPEYKNRTIFDITNNLSIVIQALRPSDEGTYECVVLKYEKDGFKREHLAEVTLSVKADFPTPSISDFEVPSSNIRRIICSTSGGFPEPHLSWLENGEELNAITTTVSQDPETELYAVSSKLDFNMTTNHSFMCLIKYGHLRVNQTFNWNTTKQEHFPDN",,,MLR IFN-gamma levels (allogeneic CD4+ T cells; [1]): 969 pg/mL; Coimmobilization with anti CD3 IFN-gamma (human pan T cells): 101 pg/mL
K36G/L40M (protein) VIHVTKEVKEVATLSCGHNVSVEELAQTRIYWQKEGKMVMTMMSGDMNIWPEYKNRTIFDITNNLSIVILALRPSDEGTYECVVLKYEKDAFKREHLAEVTLSVKADFPTPSISDFEIPTSNIRRIICSTSGGFPEPHLSWLENGEELNAINTTVSQDPETELYAVSSKLDFNMTTNHSFMCLIKYGHLRVNQTFNWNTTKQEHFPDN,30558 pg/mL,699 pg/mL,
"T41I/A91G (protein, CD80 v44 ECD) VIHVTKEVKEVATLSCGHNVSVEELAQTRIYWQKEKKMVLIMMSGDMNIWPEYKNRTIFDITNNLSIVILALRPSDEGTYECVVLKYEKDGFKREHLAEVTLSVKADFPTPSISDFEIPTSNIRRIICSTSGGFPEPHLSWLENGEELNAINTTVSQDPETELYAVSSKLDFNMTTNHSFMCLIKYGHLRVNQTFNWNTTKQEHFPDN",26052 pg/mL,433 pg/mL,
A91G/F92L/F108L/1118V/T120S (protein) VIHVTKEVKEVATLSCGHNVSVEELAQTRIYWQKEKKMVLTMMSGDMNIWPEYKNRTIFDITNNLSIVILALRPSDEGTYECVVLKYEKDGLKREHLAEVTLSVKADLPTPSISDFEVPSSNIRRIICSTSGGFPEPHLSWLENGEELNAINTTVSQDPETELYAVSSKLDFNMTTNHSFMCLIKYGHLRVNQTFNWNTTKQEHFPDN,,,MLR IFN-gamma levels (allogeneic CD4+ T cells; [1]): 665 pg/mL; Coimmobilization with anti CD3 IFN-gamma (human pan T cells): 59 pg/mL
"K36G/K37Q/M38I/L40M (protein, CD80 v49 ECD) VIHVTKEVKEVATLSCGHNVSVEELAQTRIYWQKEGQIVMTMMSGDMNIWPEYKNRTIFDITNNLSIVILALRPSDEGTYECVVLKYEKDAFKREHLAEVTLSVKADFPTPSISDFEIPTSNIRRIICSTSGGFPEPHLSWLENGEELNAINTTVSQDPETELYAVSSKLDFNMTTNHSFMCLIKYGHLRVNQTFNWNTTKQEHFPDN",811 pg/mL,427 pg/mL,
R29D/Y31L/Q33H/K36G/M38I/T41A/M43R/M47T/E81V/L85R/K89N/A91T/F92P/K93V/R94L/I118T/N149S (protein) VIHVTKEVKEVATLSCGHNVSVEELAQTDILWHKEGKIVLAMRSGDTNIWPEYKNRTIFDITNNLSIVILALRPSDEGTYVCVVRKYENDTPVLEHLAEVTLSVKADFPTPSISDFETPTSNIRRIICSTSGGFPEPHLSWLENGEELSAINTTVSQDPETELYAVSSKLDFNMTTNHSFMCLIKYGHLRVNQTFNWNTTKQEHFPDN,5028 pg/mL,387 pg/mL,
R29D/Y31L/Q33H/K36G/M38I/T41A/M42T/M43R/M47T/E81V/L85R/K89N/A91T/F92P/K93V/R94L/L148S/N149S (protein) VIHVTKEVKEVATLSCGHNVSVEELAQTDILWHKEGKIVLATRSGDTNIWPEYKNRTIFDITNNLSIVILALRPSDEGTYVCVVRKYENDTPVLEHLAEVTLSVKADFPTPSISDFEIPTSNIRRIICSTSGGFPEPHLSWLENGEESSAINTTVSQDPETELYAVSSKLDFNMTTNHSFMCLIKYGHLRVNQTFNWNTTKQEHFPDN,17387 pg/mL,464 pg/mL,
R29D/Y31L/Q33H/K36G/M38I/T41A/M43R/M47T/E81V/L85R/K89N/A91T/F92P/K93V/R94L/N149S (protein) VIHVTKEVKEVATLSCGHNVSVEELAQTDILWHKEGKIVLAMRSGDTNIWPEYKNRTIFDITNNLSIVILALRPSDEGTYVCVVRKYENDTPVLEHLAEVTLSVKADFPTPSISDFEIPTSNIRRIICSTSGGFPEPHLSWLENGEELSAINTTVSQDPETELYAVSSKLDFNMTTNHSFMCLIKYGHLRVNQTFNWNTTKQEHFPDN,24029 pg/mL,405 pg/mL,
R29D/Y31L/Q33H/K36G/M38I/T41A/M43R/M47T/E81V/L85R/K89N/A91T/F92P/K93V/R94L/N144S/N149S (protein) VIHVTKEVKEVATLSCGHNVSVEELAQTDILWHKEGKIVLAMRSGDTNIWPEYKNRTIFDITNNLSIVILALRPSDEGTYVCVVRKYENDTPVLEHLAEVTLSVKADFPTPSISDFEIPTSNIRRIICSTSGGFPEPHLSWLESGEELSAINTTVSQDPETELYAVSSKLDFNMTTNHSFMCLIKYGHLRVNQTFNWNTTKQEHFPDN,7943 pg/mL,400 pg/mL,
E24G/R29D/Y31L/Q33H/K36G/M38I/T41A/M43R/M47T/F59L/E81V/L85R/K89N/A91T/F92P/K93V/R94L/H96R/N149S/C182S (protein) VIHVTKEVKEVATLSCGHNVSVEGLAQTDILWHKEGKIVLAMRSGDTNIWPEYKNRTILDITNNLSIVILALRPSDEGTYVCVVRKYENDTPVLERLAEVTLSVKADFPTPSISDFEIPTSNIRRIICSTSGGFPEPHLSWLENGEELSAINTTVSQDPETELYAVSSKLDFNMTTNHSFMSLIKYGHLRVNQTFNWNTTKQEHFPDN,13146 pg/mL,406 pg/mL,
Q33L/E35D/M47L/A71G/F925 (protein) VIHVTKEVKEVATLSCGHNVSVEELAQTRIYWLKDKKMVLTMMSGDLNIWPEYKNRTIFDITNNLSIVILGLRPSDEGTYECVVLKYEKDASKREHLAEVTLSVKADEPKSSDKTHTCPPCPAPEAEGAPSVFLFPPKPKDTLMISRTPEVTCVVVDVSHEDPEVKFNWYVDGVEVHNAKTKPREEQYNSTYRVVSVLTVLHQDWLNGKEYKCKVSNKALPAPIEKTISKAKGQPREPQVYTLPPSREEMTKNQVSLTCLVKGFYPSDIAVEWESNGQPENNYKTTPPVLDSDGSFFLYSKLTVDKSRWQQGNVFSCSVMHEALHNHYTQKSLSLSPG,,,"Fold Increase over WT CD80-IgV-Fc (CD28): 0.7; Relative Luciferase Units (RLU), CD80-Fc Conc. 50 nM (CD28): 394 RLU"
"E88D/K89R/D90K/A91G/F92Y/K93R (protein, CD80 v48 IgV) VIHVTKEVKEVATLSCGHNVSVEELAQTRIYWQKEKKMVLTMMSGDMNIWPEYKNRTIFDITNNLSIVILALRPSDEGTYECVVLKYDRKGYRREHLAEVTLSVKAD",9356 pg/mL and 5922 pg/mL,1125 pg/mL and 944 pg/mL,
